Test results reported in publication PMC6131548, “Molecular basis for disassembly of an importin:ribosomal protein complex by the escortin Tsr2” (Nature Communications, 2018).

Key:
Conditions in all cases: both partners purified
[1] = biological target: T1, hTsr2E64G (ITC) (human, UniProt Q969E8 1-191, E64G); experiment: ITC; VP-ITC; 20–40 µM Tsr2 variant in the cell, 400–800 µM ESS2 peptide in the syringe; 25 °C, 20 mM NaPi pH 7.1, 1 mM DTT, 10 µM EDTA
T1 construct: human Tsr2 with the Diamond-Blackfan anemia-linked mutation E64G; also called E64G-DBA variant; hTsr2E64G mutant; source: E. coli BL21
T1 sequence (looked up): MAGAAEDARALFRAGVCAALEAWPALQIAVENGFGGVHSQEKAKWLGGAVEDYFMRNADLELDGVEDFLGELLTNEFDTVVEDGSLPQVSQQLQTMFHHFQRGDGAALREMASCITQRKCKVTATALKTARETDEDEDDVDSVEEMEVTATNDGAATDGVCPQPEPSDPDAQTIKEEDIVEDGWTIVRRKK

[2] = biological target: T2, hTsr2 (ITC) (human, UniProt Q969E8 1-191); experiment: as above
T2 construct: human Tsr2; probably made like the NMR constructs; also called WT hTsr2; human Tsr2; source: E. coli BL21
T2 sequence (looked up): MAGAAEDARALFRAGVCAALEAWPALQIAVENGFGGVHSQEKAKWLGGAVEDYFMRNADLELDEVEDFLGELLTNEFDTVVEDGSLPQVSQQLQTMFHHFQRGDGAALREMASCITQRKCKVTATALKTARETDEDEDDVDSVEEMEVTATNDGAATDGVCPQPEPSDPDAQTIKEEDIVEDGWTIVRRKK

[3] = biological target: T3, Tsr2-N (NMR) (S. cerevisiae (yeast), UniProt Q06672 1-152); experiment: NMR titration; stepwise titration of the unlabeled component to the labeled one (Tsr2-N, ESS2 peptide), followed by 2D 15N,1H-HSQC; 293.15 K, NMR buffer
T3 construct: Used unlabeled or 13C,15N-labeled; also called N-terminal domain of Tsr2; source: E. coli BL21 (DE3) CodonPlus-RIL, purified (HisTrap, TEV, Superdex 75); not shown: (His)6-tagged GB1 domain, N-terminal, cleaved
T3 sequence (looked up): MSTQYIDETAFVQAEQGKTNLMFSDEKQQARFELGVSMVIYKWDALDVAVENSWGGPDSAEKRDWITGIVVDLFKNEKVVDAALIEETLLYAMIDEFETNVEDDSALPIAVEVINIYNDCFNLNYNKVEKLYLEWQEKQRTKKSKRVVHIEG

[4] = biological target: T4, Tsr2 of the recombinant Tsr2:eS26 complex (XL-MS) (S. cerevisiae (yeast), UniProt Q06672 1-205); experiment: cross-linking; recombinant Tsr2:eS26 complex, 1 mg/ml in 50 mM HEPES; DSS, PDH/DMTMM or ADH/DMTMM, 37 °C; digestion, SEC, LC-MS/MS (XL-MS)
T4 construct: Tsr2, S. cerevisiae; source: recombinant Tsr2:eS26 complex, 1 mg/ml in 50 mM HEPES
T4 sequence (looked up): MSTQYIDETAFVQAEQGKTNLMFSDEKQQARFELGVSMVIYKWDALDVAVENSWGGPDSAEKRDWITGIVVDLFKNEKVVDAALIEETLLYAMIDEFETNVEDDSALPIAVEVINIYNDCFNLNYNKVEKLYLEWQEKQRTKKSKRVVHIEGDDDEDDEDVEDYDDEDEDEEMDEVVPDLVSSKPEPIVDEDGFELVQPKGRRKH

B1: human ESS2 peptide (peptide)
chain: RFRPAGAAPRPPPKPM
modifications: Human limits are not printed. They are taken by ungapped alignment to the yeast ESS2 construct in PDB 6G04 (eS26 residues 100-119; the text defines ESS2 as 99-119), running to the human C-terminus. …
A Kd [1] of 90 µM and a Kd [2] of 2 µM were found for B1 in this work.

B2: ESS2 peptide (peptide, UniProt P39938 100-119, looked up)
peptide: RPRFNRENKVSPADAAKKAL
notes: eukaryotic-specific segment 2 of eS26 (Rps26A), S. cerevisiae, residues 100-119 as deposited; ESS2 is defined as 99-119 in the results, the deposited peptide as 100-119; also called eS26-ESS2; S26A(100-119); source: E. coli BL21 (DE3) CodonPlus-RIL, cleaved from (His)6-GB1 by TEV, purified by reverse-phase HPLC (C8); not shown: (His)6-tagged GB1 domain, N-terminal, cleaved
B2: binds [3].

B3: eS26 of the recombinant Tsr2:eS26 complex (XL-MS) (natural protein)
chain: not shown
notes: ribosomal protein eS26 (Rps26A), S. cerevisiae; source: recombinant Tsr2:eS26 complex, 1 mg/ml in 50 mM HEPES
B3: binds [4].
